Source: publication PMC7922766

Biological target: Full-length recombinant human SIRT1 (human) (UniProt Q96EB6)
Sequence of UniProt Q96EB6 (Q96EB6 whole entry): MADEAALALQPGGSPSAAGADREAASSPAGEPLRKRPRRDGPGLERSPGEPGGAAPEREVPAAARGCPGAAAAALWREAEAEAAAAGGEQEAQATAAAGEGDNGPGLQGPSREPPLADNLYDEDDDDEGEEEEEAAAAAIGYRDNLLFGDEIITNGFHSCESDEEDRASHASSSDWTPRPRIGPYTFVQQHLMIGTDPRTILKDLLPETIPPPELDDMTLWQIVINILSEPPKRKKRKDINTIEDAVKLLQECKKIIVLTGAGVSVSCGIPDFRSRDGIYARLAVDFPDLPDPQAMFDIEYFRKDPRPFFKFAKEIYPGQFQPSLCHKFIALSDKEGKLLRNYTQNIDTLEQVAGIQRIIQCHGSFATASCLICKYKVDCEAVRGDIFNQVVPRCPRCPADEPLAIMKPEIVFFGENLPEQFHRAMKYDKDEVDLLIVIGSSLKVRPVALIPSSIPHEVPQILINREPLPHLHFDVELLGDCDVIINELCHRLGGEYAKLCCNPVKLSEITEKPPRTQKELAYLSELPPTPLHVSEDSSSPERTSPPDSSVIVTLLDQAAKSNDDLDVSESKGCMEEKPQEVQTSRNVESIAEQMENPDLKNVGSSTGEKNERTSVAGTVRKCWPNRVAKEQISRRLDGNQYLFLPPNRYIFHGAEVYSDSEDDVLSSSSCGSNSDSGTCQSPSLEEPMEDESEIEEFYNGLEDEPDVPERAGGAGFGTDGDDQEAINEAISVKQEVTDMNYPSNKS

Km of the peptide substrate in SIRT1-catalysed deacetylation (HPLC assay, 500 uM NAD+, 0.5 uM SIRT1, 100 mM phosphate pH 7.5, 37 °C): 46.4 µM
Substance: H4K16Ac synthetic peptide
